Two molecules from patent publication US20240293553A1 (BETH ISRAEL DEACONESS MEDICAL CENTER, published 2024) can be followed below.

Square brackets hold non-standard residues; d marks the D form. Side chains are listed from the residue outwards. Ends that are not written are not given here. mPEG 40 kDa (SVA) = 40 kDa methoxy poly(ethylene glycol) succinimidyl valerate (mPEG-SVA); triazole linker = not defined here; Fs = not defined here

For test [1], the target named is T1, human P-selectin-Ig chimera (human, UniProt P16109 42-771).
T1 construct: No source is stated for the chimera used on the microarray and in SPR; also called P-Sel-Ig; P-sel-Ig
The test is described as follows: SPR (Biacore): biotinylated ligand on streptavidin chip, P-selectin-Ig flowed at 0.4-100 nM.

In test [2] the target is T1, human P-selectin-Ig chimera. The test is described as follows: flow cytometry competition: inhibition of human P-selectin-Fc chimera (3 µg/mL) binding to human monocytes.
The target of test [3] is T2, murine P-selectin-Fc chimera (murine, UniProt Q01102 42-709).
T2 construct: Bought from R&D Systems; also called mouse P-selectin chimera; species-specific P-selectin-Fc chimera; not shown: Fc part
T2 sequence (looked up): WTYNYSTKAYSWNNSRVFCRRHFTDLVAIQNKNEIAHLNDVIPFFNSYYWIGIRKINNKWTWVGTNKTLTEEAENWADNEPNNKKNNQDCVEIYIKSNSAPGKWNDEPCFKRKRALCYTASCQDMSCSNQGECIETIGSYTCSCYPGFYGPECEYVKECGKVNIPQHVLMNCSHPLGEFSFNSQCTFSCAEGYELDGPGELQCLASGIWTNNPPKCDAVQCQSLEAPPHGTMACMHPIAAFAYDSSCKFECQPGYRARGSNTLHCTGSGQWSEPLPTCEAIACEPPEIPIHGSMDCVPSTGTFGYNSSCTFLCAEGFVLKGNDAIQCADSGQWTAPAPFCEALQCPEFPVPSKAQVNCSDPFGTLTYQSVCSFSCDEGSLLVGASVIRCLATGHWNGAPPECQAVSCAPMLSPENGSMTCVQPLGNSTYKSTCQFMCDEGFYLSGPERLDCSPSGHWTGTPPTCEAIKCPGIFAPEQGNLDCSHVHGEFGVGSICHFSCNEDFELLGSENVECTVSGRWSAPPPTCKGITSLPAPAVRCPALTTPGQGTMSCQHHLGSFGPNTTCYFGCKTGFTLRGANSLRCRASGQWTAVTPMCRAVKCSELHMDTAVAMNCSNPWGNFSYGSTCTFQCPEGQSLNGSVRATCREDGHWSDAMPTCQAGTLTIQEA
The test is described as follows: flow cytometry competition: inhibition of murine P-selectin-Fc chimera (3 µg/mL) binding to murine monocytes. For orientation: In flow cytometry, cells or beads pass a laser one at a time.

For test [4], the target named is T1, human P-selectin-Ig chimera. The test is described as follows: SPR (Biacore): biotinylated G4 on streptavidin chip, P-sel-Ig flowed at 0.4-100 nM, 1:1 model. (SPR reads the build-up and loss of mass on a sensor chip optically.)
For test [5] the target is unchanged. The test is described as follows: flow cytometry competition: inhibition of human P-selectin-Fc chimera (3 µg/mL) binding to human neutrophils.
Test [6] deals with T2, murine P-selectin-Fc chimera. The test is described as follows: flow cytometry competition: inhibition of murine P-selectin-Fc chimera (3 µg/mL) binding to murine neutrophils.

T1 sequence (P16109 42-771, change not shown): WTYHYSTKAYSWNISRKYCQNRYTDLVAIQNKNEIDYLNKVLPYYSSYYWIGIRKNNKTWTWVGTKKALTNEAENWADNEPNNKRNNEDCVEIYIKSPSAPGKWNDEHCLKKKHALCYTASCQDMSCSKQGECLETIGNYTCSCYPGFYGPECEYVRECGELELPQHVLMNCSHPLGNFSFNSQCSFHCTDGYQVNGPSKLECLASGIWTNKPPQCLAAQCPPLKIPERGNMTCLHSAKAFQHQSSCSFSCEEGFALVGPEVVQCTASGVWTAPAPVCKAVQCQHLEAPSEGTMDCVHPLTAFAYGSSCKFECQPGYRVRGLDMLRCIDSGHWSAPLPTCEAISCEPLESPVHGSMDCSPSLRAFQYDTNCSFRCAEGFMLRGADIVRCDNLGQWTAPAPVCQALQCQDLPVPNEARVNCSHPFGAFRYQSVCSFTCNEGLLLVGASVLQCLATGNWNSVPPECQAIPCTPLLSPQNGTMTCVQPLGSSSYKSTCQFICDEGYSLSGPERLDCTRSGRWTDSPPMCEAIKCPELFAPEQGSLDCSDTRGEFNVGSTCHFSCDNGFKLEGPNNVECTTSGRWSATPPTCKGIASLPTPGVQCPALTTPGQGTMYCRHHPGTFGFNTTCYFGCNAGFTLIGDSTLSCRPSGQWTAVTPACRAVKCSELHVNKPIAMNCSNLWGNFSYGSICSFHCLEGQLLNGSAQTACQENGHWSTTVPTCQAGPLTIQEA

B1: G4 (peptide)
peptide: KEFEFLDFDFLPETEPL
modifications: not fully specified (residues 3, 5, 8, 14); also: biotinylated for SPR, place not given here
notes: Synthetic glycosulfonopeptide analogue of the N-terminus of PSGL-1; also called compound 1
Take B1: the results for the Kd in test [1] and in test [4] were 0.05 µM and 0.069 µM, respectively. For the same molecule, the values for the IC50 in test [2], in test [3] and in test [5] were 16 µM, 10 µM and 13 µM, respectively.

B2: PEG40-G4 (P-G4) (peptide)
peptide: {mPEG 40 kDa (SVA)}-KE[Fs]E[Fs]LD[Fs]DFLPET([triazole linker-sLe^x])EPL
modifications: reading uncertain
notes: also called PEG-G4; pegylated click compound
As to B2, the IC50 (usually the concentration that inhibits the measured activity by half) turned out to be 12 µM in test [2], 9 µM in test [6], 6 µM in test [3] and 9 µM in test [5].
